Data on 2 molecules can be found in PMC10937712, “Natural variation in OsMYB8 confers diurnal floret opening time divergence between indica and japonica subspecies”.

In this series the target is T1, OsMYB8 (Oryza sativa, UniProt A0A0P0V5Q1 51-278).
T1 sequence: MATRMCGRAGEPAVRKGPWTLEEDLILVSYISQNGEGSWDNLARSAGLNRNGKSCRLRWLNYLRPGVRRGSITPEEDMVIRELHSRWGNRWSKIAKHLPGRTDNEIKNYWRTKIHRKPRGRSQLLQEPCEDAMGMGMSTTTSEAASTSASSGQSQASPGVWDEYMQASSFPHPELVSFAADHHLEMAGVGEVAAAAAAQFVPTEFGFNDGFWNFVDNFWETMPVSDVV
The experiment in a line: EMSA; Beyotime chemiluminescent EMSA kit binding buffer (composition, salt, pH not stated), 20 min, room temperature, 5% native PAGE; 5x and 20x cold competitor. The conditions noted are these: protein: recombinant; tags: N-terminal GST (pGEX-4T1); label: biotin; blunt. (In general: In EMSA bound probe runs differently from free probe, usually more slowly.)

B1: JAR1-P1-probe (dsDNA)
DNA 1: AAAATAAATGACTTAGGAAAGAACCAAAACATCTTACATTATAGTATAAAGAAG
DNA 2: CTTCTTTATACTATAATGTAAGATGTTTTGGTTCTTTCCTAAGTCATTTATTTT
For B1, the binding result was “binds”.

B2: JAR1-P3-probe (dsDNA)
DNA 1: CAGTGTACCTAGTGATGTACCCGCCGAATACGTACGCGTGTATGCATGGGTAGAGA
DNA 2: TCTCTACCCATGCATACACGCGTACGTATTCGGCGGGTACATCACTAGGTACACTG
On to B2, for which the binding result was “binds”.
